Experimental data: PMC10115798, “Identification of D-arabinan-degrading enzymes in mycobacteria” (Nature Communications, 2023)

Key:
Assay in all cases: SEC-MALS; SEC-LS: size exclusion chromatography coupled light scattering, Agilent MDS system, Agilent BioSEC 5 1000 Å or GE Superdex 200 column; detector offsets calibrated with BSA, concentrations by refractive index
[1] = target: Dg_(GH172a) (HMPREF9455_02467), DUF2961 family GH172 exo-D-arabinofuranosidase from Dysgonomonas gadei (Dysgonomonas gadei) (UniProt F5IZF0)
[2] = target: Dg_(GH172c) (HMPREF9455_02479), DUF2961 family GH172 exo-D-arabinofuranosidase from Dysgonomonas gadei (Dysgonomonas gadei) (UniProt F5IZG2)
[3] = target: Dg_(GH172b) (HMPREF9455_02471), DUF2961 family GH172 exo-D-arabinofuranosidase from Dysgonomonas gadei (Dysgonomonas gadei) (UniProt F5IZF4)
[4] = target: Myc_(GH172) (GII36_05205), DUF2961 homolog from Candidatus Mycosynbacter amalyticus (Candidatus Mycosynbacter amalyticus)
[5] = target: the molecule itself

Dg_(GH172a) (HMPREF9455_02467), DUF2961 family GH172 exo-D-arabinofuranosidase from Dysgonomonas gadei (from UniProt F5IZF0 1-386) (enzyme)
stoichiometry N [1]: 12

Dg_(GH172c) (HMPREF9455_02479), DUF2961 family GH172 exo-D-arabinofuranosidase from Dysgonomonas gadei (from UniProt F5IZG2 1-402) (enzyme)
stoichiometry N [2]: 6

Dg_(GH172b) (HMPREF9455_02471), DUF2961 family GH172 exo-D-arabinofuranosidase from Dysgonomonas gadei (from UniProt F5IZF4 1-643) (enzyme)
stoichiometry N [3]: 2

Myc_(GH172) (GII36_05205), DUF2961 homolog from Candidatus Mycosynbacter amalyticus (enzyme)
stoichiometry N [4]: 3

B1: Noc_(GH172) (O3I_017420), DUF2961 family GH172 enzyme from Nocardia brasiliensis (enzyme, UniProt K0EX55 1-342, looked up)
chain: MTPPRRSELWLLDDTRTRSVSAENPTGAPGGGARATTGTGAHAARLLGPGWKISPSIVLGDGETATLADVSGPGVLRHCWLTTDRAALRELTLRMYWDDAAEPAIDVPLGDFFCNGWDELALVDSEMVVVAPAGGLNSYWPMPFRRRARITLENHCGRSVPVYYQITYGEEDVPGEAGYLHARWSRSAPLGSPAVHTLLDTGPARGRYVGTYLAIRPGAPRWWGEGEMKFYLDGDDEYPTLCGTGTEDYFGGAWNFDMDGKYRTYSTAYLGLPQALPADEIYQAHQRFGMYRWHVHDPICFHRELRVTVQGLGWRDSDTYLPLEDAEIATTVWWYQEVPPSG
notes: O3I_017420, DUF2961 homologue, Nocardia brasiliensis; codon-optimized gene bought from Twist Biosciences; also called GH172Noc; source: E. coli BL21-DE3, purified (IMAC, size exclusion chromatography)
stoichiometry N [5]: 3
